Assay results as given in the supplement of paper PMC10567573.
± gives the standard deviation.

Test: protein stability index of a GFP-peptide fusion (GPS, HEK-293T) (PSI 1-6); higher = more stable
[1] = treatment: DMSO, c terminus: a fixed tail appended
[2] = treatment: MLN4924 1 uM, 8 h, c terminus: a fixed tail appended
[3] = treatment: DMSO, c terminus: native
[4] = treatment: MLN4924 1 uM, 8 h, c terminus: native
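Further: 24-mer peptide tiles fused after GFP, lentivirally expressed, FACS-sorted into six equal bins by GFP/DsRed ratio, decoded by Illumina sequencing, PSI is the read-weighted mean bin number.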

Sequence	protein stability index [1]	protein stability index [2]	protein stability index [3]	protein stability index [4]
CHGMSSQLVRYSADGLLQLGPLGS [GALNT9]	2.32 ± 0.3	2.12 ± 0.21		
SYFSGQGSDTGASLKLASSELERL [JUNB]	4.182 ± 0.04	4.427 ± 0.038		
FSTSKWNHLLHHFVIGHLKGAPAS [FADS1]	2.65 ± 0.67	2.17 ± 0.38		
LSEEEEDEEEEEEEEEEGRFYYSE [KCNA4]	5.2 ± 0.16	5.19 ± 0.39		
MPAHLLQDDISSSYTTTTTITAPP [SCD]	3.99 ± 0.21	3.88 ± 0.28		
VKLMMSTLPKSLSLPTTAPSNSSS [MYBL2]	3.24 ± 0.18	3.33 ± 0.24		
LEADELCDDGGDGRGAVVPGAGLR [ZBTB22]	5.18 ± 0.27	5.26 ± 0.17		
DDEDEEEEDADCYDDDDSGNEES [UBE2R2]			5.57 ± 0.33	5.57 ± 0.084
MVVKTFMDMDQDSEEEKELYLNLA [PDS5B]	2.79 ± 0.22	3 ± 0.23		
TRRHPGGSRVISHYAGQDATDPFV [FADS1]	3.7 ± 0.33	3.86 ± 0.089		
LWSQSYEDSSNQEEEGPSTFPDLE [MAGEA3]	5.26 ± 0.21	5.06 ± 0.14		
RRENSTLDVECHEKEKHVNQLQTK [SASS6]	5.13 ± 0.11	5.26 ± 0.23		
QTQVKIWFQNKRSKFKKLMKQGGA [DLX1]	2.36 ± 0.32	2.1 ± 0.42		
YIGSIMKGGAVAADGRIEPGDMLL [DVL3]	2.34 ± 0.22	2.57 ± 0.43		
KPHFESSTVKTETISFGSVSPGGV [EPB41L3]	4.08 ± 0.23	4.09 ± 0.11		
TLYANNVQRVMAQALGIPATECEF [LPCAT4]	2.49 ± 0.22	2.58 ± 0.19		
MADSASESDTDGAGGNSSSSAAMQ [CCDC6]	5.51 ± 0.08	5.38 ± 0.32		
VEADINGLRRVLDELTLARTDLEM [KRT15]	3.29 ± 0.27	3.33 ± 0.39		
PEGHVLRSDGKTCAKLDSCALGDH [MATN2]	4.79 ± 0.13	4.72 ± 0.21		
GKNLYTNEYVAIKLEPIKSRAPQL [CSNK1G1]	2.35 ± 0.032	2.58 ± 0.13		
EKRLQEIEELEREAERKIIEENIT [SRPK2]	5.03 ± 0.33	5.39 ± 0.26		
TIIFTAAREGRETLKCLSHHVADA [TOR1AIP2]	2.42 ± 0.13	2.62 ± 0.2		
CVTLVWRMPDEDSKIDHYVLEYRR [FSD1]	2.29 ± 0.43	1.93 ± 0.3		

Sequence	protein stability index [1]	protein stability index [2]	protein stability index [3]	protein stability index [4]
NALVTKLLLDCGAEVNAVDNEGNS [FEM1B]	3.64 ± 0.19	3.72 ± 0.17		
QDGVLDLSTKKSPCAGSTSLSHSP [LCOR]	4.95 ± 0.14	4.96 ± 0.2		
NLGVENMNHYKKTTLEIHNTEERQ [PTPN9]	4.4 ± 0.2	4.8 ± 0.28		
LIDVCKYLGSLQYRVWKKMLASVE [TRIM35]	2.75 ± 0.43	2.25 ± 0.33		
DEDELRKSLSELVDDKFGTGTKKV [PSD2]	5.2 ± 0.15	5.4 ± 0.21		
CQYLMATFVNVYIASFIRGPNPSK [CDS2]	3.67 ± 0.3	3.4 ± 0.45		
DEEHMEEAITSASFLEQIMAPLQP [FAM189A2]	4.74 ± 0.18	4.96 ± 0.19		
QTGDLLSTFHTISPSFQLKAAALP [PLAGL1]	2.6 ± 0.22	2.67 ± 0.22		
DENERDLMHIAHIAELLEVFDLRM [RHOBTB2]	2.63 ± 0.11	2.7 ± 0.34		
ELMPSSRLWSLSYTKLPSSLQSTG [SLC25A39]	2.48 ± 0.13	2.47 ± 0.14		
VILFSSAVYFAEAEEAESHFSSIP [KCNA1]	2.37 ± 0.5	2.35 ± 0.29		
YSHRETVNGSWYIQDLCEMLGKYG [CASP6]	1.93 ± 0.39	2.1 ± 0.35		
GVCIRRCTVLRDARIRSHSWLESC [GMPPB]	2.31 ± 0.35	2.15 ± 0.12		
SPIKKVRKSLALDIVDEDVKLMMS [MYBL2]	3.6 ± 0.34	3.68 ± 0.43		
FSVLEGEKNNHRAKDLRAPPEQGK [SOAT1]	5.08 ± 0.26	4.92 ± 0.18		
IDSRARRNLGSINTELQDVQRIMV [SEC22B]	2.8 ± 0.28	2.87 ± 0.29		
RRITYLQNPKDCSKAKKLVCNINK [FUT8]	2.77 ± 0.28	3.05 ± 0.26		
SSCENKRADLVFIIDSSRSVNTHD [MATN2]	2.81 ± 0.22	2.92 ± 0.13		
VHTKEQILELLVLEQFLAILPKEL [ZNF396]	3.22 ± 0.74	2.43 ± 0.63		
FQCNQCGASFTQKGNLLRHIKLHS [IKZF1]	4.56 ± 0.16	4.4 ± 0.76		
SPESESDHEHEEADLELSLPECLE [GNAS]	5.4 ± 0.38	5.57 ± 0.26		
FSEIISSISDVKFSHSGRYIMTRD [PPP2R2B]	2.52 ± 0.28	2.53 ± 0.29		
QLWSNVTPLTFTKVSEGQADIMIS [MMP1]	2.58 ± 0.24	2.66 ± 0.43		

Sequence	protein stability index [1]	protein stability index [2]	protein stability index [3]	protein stability index [4]
NRKVSQRRVDFCKDPSAIGKKQVP [CASP6]	4.04 ± 0.16	4.26 ± 0.22		
EIGTSDQIVPEYQEDSDISSFFC [TRIB1]			3.38 ± 0.66	4.22 ± 0.82
YSALSCTSDASFHPAFLPQRQAIK [KCNG1]	2.78 ± 0.23	3.18 ± 0.19		
QRIKSQERETEATRGRGGLLRDHI [MOG]	4.59 ± 0.18	4.78 ± 0.11		
KQRSVCTWGKNKPGIGAVILKRFC [FAN1]	1.99 ± 0.31	2.02 ± 0.15		
IEKYLRRQLTKPRPVILDPADPTG [OAS1]	3.09 ± 0.2	3.25 ± 0.24		
LRRGASVNRTTRTNSTPLRAACFD [FEM1A]	3.81 ± 0.38	3.87 ± 0.31		
NNVVDISVPPTTDGQKPNKLQCCQ [RAB11B]	4.72 ± 0.26	4.58 ± 0.12		
NLARQWNNCAFLESSAKSKINVNE [RAP1B]	2.93 ± 0.33	2.75 ± 0.19		
AIHVLGPIDFEESRFYEIHARARD [PCDHGC5]	2.64 ± 0.45	3.01 ± 0.095		
ETIPLTAEKLCIYTDNSIRPEELL [CCND1]	3.59 ± 0.41	3.94 ± 0.34		
PILAPRIFGSNKWTTEQQQRFHEI [ARL6IP1]	3.07 ± 0.25	3 ± 0.22		
QAEIENKRRQLEDERRQLQHLKSK [PALM]	5.02 ± 0.17	4.97 ± 0.36		
DVELLQDLGDIVARSESVLLHMPQ [TRIM43]	3.18 ± 0.2	3.25 ± 0.35		
CVDLTITNLLEGAVAFMPEDITKG [AUP1]	2.29 ± 0.2	2.57 ± 0.33		
RLRDAGFRVTLWVHPFVNYNSSRF [MYORG]	2.61 ± 0.61	2.44 ± 0.15		
WLSANPCPHCGDRTFYDPEPILCP [PRAME]	2.45 ± 0.19	2.69 ± 0.45		
LDVKSPPEPRSEVVPARLKRASAP [RIPK4]	5.08 ± 0.49	5.11 ± 0.092		
GGMMPPGPGIPPLMPGMPPGMPPP [ZNF207]	3.89 ± 0.43	4.09 ± 0.15		
SVSSCDQEHQSALEEAKQPKNDNV [SMOC2]	5.38 ± 0.21	5.64 ± 0.082		
QEPQSPQKLNPGFDLAKGNAGKVN [PLAGL1]	5 ± 0.2	4.89 ± 0.39		
QATLPVGSPSRPLSRRQLCPLTPG [C2CD2L]	3.61 ± 0.33	3.74 ± 0.14		
ARLTGVNDKMAEYTNSAGVPSLNA [GOSR1]	3.83 ± 0.22	4.01 ± 0.16		

Sequence	protein stability index [1]	protein stability index [2]	protein stability index [3]	protein stability index [4]
LLRDQFVKALEDFEDLCDRVFSDE [FAM9B]	2.97 ± 0.29	3.17 ± 0.38		
PMQERRASFYACRLDKHLYVIGGR [KLHL14]	2.15 ± 0.49	2.23 ± 0.28		
AERLTATGILLHPWLRQDPMPLAP [TRIB3]	2.78 ± 0.22	2.91 ± 0.18		
YSIDQEFLKEYFPIEVVTEGLLNT [NLN]	2.79 ± 0.24	3.19 ± 0.53		
DVSLVGGPADCSPPHPAPAPQHPA [DYRK1B]	5.02 ± 0.16	5.14 ± 0.12		
RRSISSSRSENVLSRLSLMAMPNG [PSD2]	3.54 ± 0.17	3.56 ± 0.19		
HARYRVIHFIAVAVCLLGVGTMVG [SLC35F2]	2.42 ± 0.42	2.28 ± 0.15		
PRAAHACATVGNRGFVFGGRYRDA [KLHDC2]	2.19 ± 0.19	2.12 ± 0.14		
SQLRLVCKRMDLVCQRMLNQGFLK [FBXO28]	2.38 ± 0.42	2.46 ± 0.2		
PASQHSTPAGLPPSRAKPPTEGAG [FBF1]	5.39 ± 0.3	5.293 ± 0.028		
EPEKLYAMPDPAGPDGHLPAVATL [ESRRA]	4.65 ± 0.27	4.69 ± 0.23		
SGTFAPISDRYSPELRQLVLSLLS [NEK8]	2.12 ± 0.21	2.25 ± 0.38		
SLSLFGCTNIFYEEENPGGCEDEY [ZER1]	3.97 ± 0.14	4.06 ± 0.23		
ATAFSKLKPESSQQPGQDALAVKA [ZBED1]	4.8 ± 0.5	5.21 ± 0.12		
RIHTGERPYMCKECGKAFSQNSSL [ZNF8]	2.84 ± 0.39	3.2 ± 0.74		
VSMEIFFKAWLHNSGTDQEQIHLL [M1AP]	2.41 ± 0.52	2.21 ± 0.27		
KLIKCDEIQVDSEEPVFEAVINWV [KLHL12]	2.15 ± 0.26	2.4 ± 0.36		
SLLDELLEVDHIRTIYHMFIALLI [SOAT1]	2.01 ± 0.27	2.11 ± 0.56		
SAAWMKERTSPGAIHYCASTSEES [SPDEF]	4.66 ± 0.13	4.72 ± 0.3		
PIDFEESRFYEIHARARDQGQPAM [PCDHGC5]	4.3 ± 0.2	4.38 ± 0.21		
